Numbering of substitutions follows the chain as printed.
Key:
[1] = target: T1, FLAP(S108D) (human, UniProt P20292 1-161, S108D); test: cell-based or functional assay
T1 sequence (looked up): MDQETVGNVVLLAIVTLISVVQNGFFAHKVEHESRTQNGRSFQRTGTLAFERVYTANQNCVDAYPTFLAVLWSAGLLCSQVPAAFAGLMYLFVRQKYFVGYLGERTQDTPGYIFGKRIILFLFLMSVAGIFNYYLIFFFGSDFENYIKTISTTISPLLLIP

[2] = target: T2, FLAP(T109C) (human, UniProt P20292 1-161, T109C); test: cell-based or functional assay
T2 sequence (looked up): T1 sequence (looked up) with D108S, T109C

[3] = target: T3, FLAP(S41D) (human, UniProt P20292 1-161, S41D); test: cell-based or functional assay
T3 sequence (looked up): T1 sequence (looked up) with S41D, D108S

[4] = target: T4, FLAP(S108Δ) (human) (UniProt P20292)
T4 sequence: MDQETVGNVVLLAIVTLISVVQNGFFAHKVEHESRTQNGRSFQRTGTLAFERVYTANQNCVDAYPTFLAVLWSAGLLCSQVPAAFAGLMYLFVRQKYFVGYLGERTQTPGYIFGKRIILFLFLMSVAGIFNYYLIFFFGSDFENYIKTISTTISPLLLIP

B1: 5-lipoxygenase (enzyme, human, UniProt P09917 1-674, looked up)
chain: MPSYTVTVATGSQWFAGTDDYIYLSLVGSAGCSEKHLLDKPFYNDFERGAVDSYDVTVDEELGEIQLVRIEKRKYWLNDDWYLKYITLKTPHGDYIEFPCYRWITGDVEVVLRDGRAKLARDDQIHILKQHRRKELETRQKQYRWMEWNPGFPLSIDAKCHKDLPRDIQFDSEKGVDFVLNYSKAMENLFINRFMHMFQSSWNDFADFEKIFVKISNTISERVMNHWQEDLMFGYQFLNGCNPVLIRRCTELPEKLPVTTEMVECSLERQLSLEQEVQQGNIFIVDFELLDGIDANKTDPCTLQFLAAPICLLYKNLANKIVPIAIQLNQIPGDENPIFLPSDAKYDWLLAKIWVRSSDFHVHQTITHLLRTHLVSEVFGIAMYRQLPAVHPIFKLLVAHVRFTIAINTKAREQLICECGLFDKANATGGGGHVQMVQRAMKDLTYASLCFPEAIKARGMESKEDIPYYFYRDDGLLVWEAIRTFTAEVVDIYYEGDQVVEEDPELQDFVNDVYVYGMRGRKSSGFPKSVKSREQLSEYLTVVIFTASAQHAAVNFGQYDWCSWIPNAPPTMRAPPPTAKGVVTIEQIVDTLPDRGRSCWHLGAVWALSQFQENELFLGMYPEEHFIEKPVKEAMARFRKNLEAIVSVIAERNKKKQLPYYYLSPDRIPNSVAI
Question: B1 was tested. Which “ratio of 5‐H(P)ETE to trans‐isomers of LTB4 formed in HEK293 cells co-expressing 5-LOX and the FLAP mutant (2.5 μM A23187 plus 2 μM AA, vehicle); wildtype about 1.2” value (“ratio of 5‐H(P)ETE” for short) [1] did it give?
Answer: Its value is 2.

Question: And the “ratio of 5‐H(P)ETE” value [2]?
Answer: The value was 2.6.

Question: And the “ratio of 5‐H(P)ETE” value [3]?
Answer: Its value is 2.3.

Question: What about the ratio of 5‐H(P)ETE to trans‐isomers of LTB4 formed in HEK293 cells co-expressing 5-LOX and the FLAP mutant (2.5 μM A23187 plus 2 μM AA, vehicle); wildtype about 1.2 [4] of the same binder?
Answer: The ratio of 5‐H(P)ETE to trans‐isomers of LTB4 formed in HEK293 cells co-expressing 5-LOX and the FLAP mutant (2.5 μM A23187 plus 2 μM AA, vehicle); wildtype about 1.2 was 3.2.

Source: paper PMC12338864, “Modifications in FLAP's second cytosolic loop influence 5‐LOX interaction, inhibitor binding, and leukotriene formation” (Febs Letters, 2025)
